One series addresses T1, PTK7-CFP (UniProt Q13308).
T1 sequence: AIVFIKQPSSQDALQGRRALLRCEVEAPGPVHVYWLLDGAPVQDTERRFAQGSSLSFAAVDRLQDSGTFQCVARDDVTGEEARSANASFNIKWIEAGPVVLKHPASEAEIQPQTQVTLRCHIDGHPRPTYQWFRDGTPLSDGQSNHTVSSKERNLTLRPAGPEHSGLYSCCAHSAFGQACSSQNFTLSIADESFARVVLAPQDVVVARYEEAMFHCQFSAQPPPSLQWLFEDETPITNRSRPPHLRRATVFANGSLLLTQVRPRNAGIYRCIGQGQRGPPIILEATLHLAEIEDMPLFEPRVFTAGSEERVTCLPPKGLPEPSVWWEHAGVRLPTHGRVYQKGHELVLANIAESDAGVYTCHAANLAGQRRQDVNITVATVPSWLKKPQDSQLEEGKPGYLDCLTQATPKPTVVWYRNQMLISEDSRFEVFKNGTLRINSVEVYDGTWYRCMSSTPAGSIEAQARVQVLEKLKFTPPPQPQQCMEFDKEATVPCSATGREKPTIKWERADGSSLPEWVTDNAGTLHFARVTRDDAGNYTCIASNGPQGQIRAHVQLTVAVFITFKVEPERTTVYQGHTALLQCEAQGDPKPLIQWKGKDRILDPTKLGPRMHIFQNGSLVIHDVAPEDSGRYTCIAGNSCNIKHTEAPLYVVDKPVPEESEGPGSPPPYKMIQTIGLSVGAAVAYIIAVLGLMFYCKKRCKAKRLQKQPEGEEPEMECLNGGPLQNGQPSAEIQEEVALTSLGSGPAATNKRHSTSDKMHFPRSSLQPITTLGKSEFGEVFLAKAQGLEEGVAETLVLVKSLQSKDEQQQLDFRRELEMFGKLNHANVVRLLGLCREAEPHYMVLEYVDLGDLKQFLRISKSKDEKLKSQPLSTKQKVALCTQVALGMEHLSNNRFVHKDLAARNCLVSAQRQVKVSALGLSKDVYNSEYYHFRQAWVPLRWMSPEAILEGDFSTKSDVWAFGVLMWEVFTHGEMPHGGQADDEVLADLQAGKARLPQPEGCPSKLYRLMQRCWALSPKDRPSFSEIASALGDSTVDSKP
In words: covalent biotin transfer on cells, SA-HRP blot. To be noted: EC50 of label transfer, not equilibrium Kd; transfected HEK293T, 1 h, 5 mM MgCl2; T27 replaced by 5-octadiynyl-dU, clicked to azide-tethered N-acyl sulfonamide biotin electrophile 1; DPBS with 5 mM MgCl2, 4.5 g/L glucose, pH 7.4, 37 C, 1 h (cells: plus 0.1 mg/mL yeast tRNA); read-out is proximity-driven covalent labeling, no equilibrium Kd ….

The target in series [1] is T2, PTK7 (recombinant, R&D Biosystems NC2081082) (UniProt Q13308 31-703).
T2 sequence: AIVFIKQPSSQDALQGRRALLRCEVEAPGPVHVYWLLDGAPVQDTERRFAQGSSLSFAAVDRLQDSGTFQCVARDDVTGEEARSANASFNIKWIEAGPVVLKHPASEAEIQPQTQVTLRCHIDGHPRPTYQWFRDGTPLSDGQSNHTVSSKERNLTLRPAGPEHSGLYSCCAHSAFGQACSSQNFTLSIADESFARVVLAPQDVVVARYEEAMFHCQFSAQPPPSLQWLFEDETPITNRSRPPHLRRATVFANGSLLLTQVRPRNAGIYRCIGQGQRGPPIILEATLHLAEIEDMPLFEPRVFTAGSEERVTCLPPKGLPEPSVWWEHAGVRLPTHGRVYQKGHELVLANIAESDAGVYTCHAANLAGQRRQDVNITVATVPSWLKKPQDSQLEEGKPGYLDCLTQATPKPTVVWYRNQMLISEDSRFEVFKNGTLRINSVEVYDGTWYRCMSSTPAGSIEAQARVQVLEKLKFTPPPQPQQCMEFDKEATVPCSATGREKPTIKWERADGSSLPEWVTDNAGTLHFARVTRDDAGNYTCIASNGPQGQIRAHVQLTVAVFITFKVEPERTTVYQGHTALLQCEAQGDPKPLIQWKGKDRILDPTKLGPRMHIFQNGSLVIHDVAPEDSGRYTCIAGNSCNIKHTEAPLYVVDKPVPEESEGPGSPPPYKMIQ
Description: covalent biotin transfer, SA-HRP blot; EC50 of label transfer, not equilibrium Kd; 100 nM PTK7, 1 h, 37 C, 5 mM MgCl2; DPBS with 5 mM MgCl2, 4.5 g/L glucose, pH 7.4, 37 C, 1 h (cells: plus 0.1 mg/mL yeast tRNA); read-out is proximity-driven covalent labeling, no equilibrium Kd measured. The conditions noted are these: protein: commercial; label: transferable biotin; stem-loop (UNIFold prediction).

Consider “ATCTAACTGCTGCGCCGCCGGGAAAATACTGTACGGTTAGA [sgc8c(27)-1]”, for which the K half with PTK7-CFP came out at 251 nM.

B1: sgc8c(27)-1 (structured_DNA)
DNA: ATCTAACTGCTGCGCCGCCGGGAAAATACTGTACGGTTAGA
modifications: T27 replaced by 5-octadiynyl-dU, clicked to azide-tethered N-acyl sulfonamide biotin electrophile 1
Take B1: in series [1], the “apparent K (half saturation)” value was 203 nM.

The record behind these values is publication PMC10401710, “Cell Surface Labeling and Detection of Protein Tyrosine Kinase 7 via Covalent Aptamers”.
